Assays:
[1] = biological target: Est22 (wild type) (bacterial, deep-sea sediment metagenomic library); assay: SEC-MALS; 20 ul of 1 mg/ml Est22 on a wtc030s5 column (Wyatt), 20 mM Tris-HCl, 100 mM NaCl, pH 7.4
[2] = biological target: Est22 (wild type) (bacterial, deep-sea sediment metagenomic library); assay: SEC; gel filtration profiles of wild type and mutants, Superdex 200 16/600 (panel C); column of panel E not given
[3] = biological target: Est22 S188A (bacterial, deep-sea sediment metagenomic library); assay: as above
[4] = biological target: Est22 S188A/D287A (bacterial, deep-sea sediment metagenomic library); assay: as above
[5] = biological target: Est22 S188A/H317A (bacterial, deep-sea sediment metagenomic library); assay: as above
[6] = substrate: CC(=O)Oc1ccc([N+](=O)[O-])cc1; assay: purified protein; type: biochemical, uncultured bacterium; settings: 100 mM Tris-HCl, pH 7.5, 40 °C
[7] = biological target: the molecule itself; assay: SEC; gel filtration profiles of wild type and mutants, Superdex 200 16/600 (panel C); column of panel E not given

With Est22 (wild type) (enzyme) the stoichiometry N [1] was 2 and the stoichiometry N [2] was 2.

In the case of Est22 S188A (enzyme), the stoichiometry N [3] is reported as 2.

For Est22 S188A/D287A (enzyme), the stoichiometry N [4] was 2.

For Est22 S188A/H317A (enzyme), the stoichiometry N [5] was 2.

B1: Est22 (uncultured bacterium) (protein)
chain: MTNKIAEDPRIDPRIKAIFSGMDLGGGGDVESREAMLEAASSEEATAVRDGLRVFLDACDNEEIAPSAGLKIEDYEFTSEPDGNIAKIQYIRPDSTDKLPCVYYIHGGGMQSLSCYYGNYRAWGKIIASNGVAVAMVEFRNALVPSALPEVAPYPAGLNDCVSGVKWVASHADELGIDASRIIIAGESGGGNLTLAAGLRLKQEGSQDLIQGLYALCPYIAGSWPSEDSPSSTENNGILLDLHNNQGAMGYGIEAYEMRDPLAWPGFATEEDVSGLVPTFISVNECDPLRDEGINFYRLLLRAGVSAKCRQVMGTIHGTEIFPIACPDVSRDTAASIANFCKGG
notes: full length 1-344 aa, N-terminal 6xHis tag (pET28b), E. coli Rosetta (DE3)
Molecule B1 has a Km [6] of 489.9 µM and a kcat [6] of 3160 s⁻¹.

B2: Est22 S170A (enzyme)
chain: MGSSHHHHHHHSSGLVPRGSHMTNKIAEDPRIDPRIKAIFSGMDLGGGGDVESREAMLEAASSEEATAVRDGLRVFLDACDNEEIAPSAGLKIEDYEFTSEPDGNIAKIQYIRPDSTDKLPCVYYIHGGGMQSLSCYYGNYRAWGKIIASNGVAVAMVEFRNALVPSALPEVAPYPAGLNDCVSGVKWVAAHADELGIDASRIIIAGESGGGNLTLAAGLRLKQEGSQDLIQGLYALCPYIAGSWPSEDSPSSTENNGILLDLHNNQGAMGYGIEAYEMRDPLAWPGFATEEDVSGLVPTFISVNECDPLRDEGINFYRLLLRAGVSAKCRQVMGTIHGTEIFPIACPDVSRDTAASIANFCKGG
In the case of B2, the “stoichiometry N” value [7] is reported as 2.
